Data on two molecules can be found in article doi:10.1101/2021.10.13.464218 (bioRxiv, 2021).

Test [1] has as its target Ag2 (EPEA), displayed on E. coli (synthetic EPEA peptide tag (sequence …)). Nature of the test: flow cytometry on cells.
The target of test [2] is intimin (EHEC adhesin), overexpressed on the E. coli surface (Escherichia coli O157:H7 (EHEC), …, UniProt P43261). In words: flow cytometry on cells.
intimin (EHEC adhesin), overexpressed on the E. coli surface, sequence (P43261 40-934): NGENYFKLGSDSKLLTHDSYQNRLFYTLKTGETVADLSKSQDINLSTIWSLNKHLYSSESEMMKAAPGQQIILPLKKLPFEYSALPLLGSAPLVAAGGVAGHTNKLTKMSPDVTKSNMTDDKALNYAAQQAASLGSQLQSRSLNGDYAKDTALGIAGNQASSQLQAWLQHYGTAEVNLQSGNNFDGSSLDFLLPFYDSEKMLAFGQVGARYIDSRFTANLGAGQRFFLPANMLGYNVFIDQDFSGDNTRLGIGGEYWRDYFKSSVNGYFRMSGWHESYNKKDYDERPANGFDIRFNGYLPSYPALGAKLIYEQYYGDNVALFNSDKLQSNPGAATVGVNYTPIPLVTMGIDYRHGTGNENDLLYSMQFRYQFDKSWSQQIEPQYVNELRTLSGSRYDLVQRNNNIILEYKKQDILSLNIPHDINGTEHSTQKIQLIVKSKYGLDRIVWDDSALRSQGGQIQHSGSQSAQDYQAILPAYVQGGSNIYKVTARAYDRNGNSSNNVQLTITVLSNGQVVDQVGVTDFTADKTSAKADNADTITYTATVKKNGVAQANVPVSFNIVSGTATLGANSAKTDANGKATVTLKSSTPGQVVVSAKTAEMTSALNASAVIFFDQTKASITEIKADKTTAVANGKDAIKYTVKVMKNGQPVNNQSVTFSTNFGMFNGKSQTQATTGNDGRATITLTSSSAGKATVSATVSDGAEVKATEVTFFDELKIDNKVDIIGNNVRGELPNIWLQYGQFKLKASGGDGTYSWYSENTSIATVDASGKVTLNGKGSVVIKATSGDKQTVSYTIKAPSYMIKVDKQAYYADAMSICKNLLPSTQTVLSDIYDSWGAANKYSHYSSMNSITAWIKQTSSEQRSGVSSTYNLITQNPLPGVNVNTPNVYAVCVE

B1: Nb3 (anti-P53TA) nanobody, yeast-displayed (VHH)
VHH: QVQLQESGGGSVRPGESLRLSCIAAGTLFSGKAVGWYRQAPGKDRELVAALSSGRETYYIGPVKGRFIISRDDNKDTLYLQMNNLKLEDTAIYTCRLGLHWGQGTQVTVSS
B1: the binding result in test [1] was “no binding”.

B2: IB10 nanobody against intimin, yeast-displayed (VHH)
VHH: QVQLVESGGGSVQAGGSLRLSCKASGFTFPYSDMGWYRQTPGNECELVSTTGPESDPSFWYADSVKGRFTISRDNTKNTVYLQMNDLKPEDTGMYVCASELGAGSGRCYGYHYWGQGTQVTVSS
For the molecule B2, the binding result in test [2] is given as “binds”.
